Source: article PMC7039645 (mAbs, 2020)
Residue numbers refer to the chain shown, from its start. Where two headings read alike, the source gives them in different places.

B1: hu4D5-g3.1 Fab (Fab, V domains shown)
VH: EVQLVESGGGLVQPGGSLRLSCAASGFNIKDTYIHWVRQAPGKGLEWVARIYPTNGYTRYADSVKGRFTISADTSKNTAYLQMNSLRAEDTAVYYCARGHYSSGHPFDYWGQGTLVTVSS
VL: not shown
B2: hu4D5-g2.2 Fab (Fab, V domains shown)
VH: B1 VH with G99S, Y101A, S102L, S103V, G104Y, H105G, P106L, F107I
VL: not shown
B3: hu4D5-g3.2 Fab (Fab, V domains shown)
VH: B1 VH with H100I, Y101G, S102N, S103G, G104A, H105E, P106G, F107M
VL: not shown
B4: hu4D5-g2.1 Fab (Fab, V domains shown)
VH: B1 VH with G99S, Y101K, S102N, S103V, G104M, H105G, P106L, F107V
VL: not shown
B5: F9.13.7 (antibody, V domains shown)
VH: QVQLQQPGAELVKPGASVKLSCKASGYTFTSYWMHWVKQGPGQGLEWIGEIDPSDSYPNYNEKFKGKATLTVDKSSSTAYMQLSSLTSEDSAVYYCASLYYYGTSYGVLDYWGQGTSVTVSS
VL: DIQMTQTTSSLSASLGDRVTISCRASQDISNYLNWYQKKPDGTVKLLIYYTSRLHSGVPSRFSGSGSGTDYSLTIRNLEQEDIATYFCQQGYTLPYTFGGGTKLEIK
B6: hu2C4-g3.1 IgG1 (antibody, V domains shown)
VH: EVQLVESGGGLVQPGGSLRLSCAASGFTFTDYTMDWVRQAPGKGLEWVADVNPNSGGSIYNQRFKGRFTLSVDRSKNTLYLQMNSLRAEDTAVYYCARLMSYGYFDYWGQGTLVTVSS
VL: DIQMTQSPSSLSASVGDRVTITCKASQDVSIGVAWYQQKPGKAPKLLIYSASYRYTGVPSRFSGSGSGTDFTLTISSLQPEDFATYYCQQYYIYPYTFGQGTKVEIK
B7: hu2C4-g1.1 IgG1 (antibody, V domains shown)
VH: EVQLVESGGGLVQPGGSLRLSCAASGFTFTDYTMDWVRQAPGKGLEWVADVNPNSGGSIYNQRFKGRFTLSVDRSKNTLYLQMNSLRAEDTAVYYCARAIAGGVLLDYWGQGTLVTVSS
VL: B6 VL
B8: hu2C4-g2.1 IgG1 (antibody, V domains shown)
VH: B7 VH with A99S, I100S, A101T, G102P, G103P, V104F, L105F, L106M
VL: B6 VL
B9: hu2C4-g3.2 IgG1 (antibody, V domains shown)
VH: B6 VH with M100L, S101A, F105L
VL: B6 VL
B10: hu2C4-g1.2 IgG1 (antibody, V domains shown)
VH: B7 VH with A101T, G102N, G103E
VL: B6 VL
B11: hu2C4-g2.2 IgG1 (antibody, V domains shown)
VH: B7 VH with A99S, I100S, A101R, G102P, G103P, V104W, L105F, L106F
VL: B6 VL

What was measured:
Test in all cases: SPR
[1] = biological target: T1, human epidermal growth factor receptor 2 (Homo sapiens, UniProt P04626)
hen egg-white lysozyme = hen egg-white lysozyme (chicken (hen egg-white), UniProt P00698)
[2] = biological target: T1, human epidermal growth factor receptor 2; remark: listed apart in the source

| Kd [1] | koff [1] | kon [1] | binding result (hen egg-white lysozyme) | Kd [2] | koff [2] | kon [2] | Binder |
| --- | --- | --- | --- | --- | --- | --- | --- |
| 0.39 nM | 0.00032 s⁻¹ | 960000 M⁻¹ s⁻¹ | – | – | – | – | B1 |
| 0.33 nM | 0.00043 s⁻¹ | 1.8e+06 M⁻¹ s⁻¹ | – | – | – | – | B2 |
| 1.8 nM | 0.0011 s⁻¹ | 660000 M⁻¹ s⁻¹ | – | – | – | – | B3 |
| 0.27 nM | 0.00035 s⁻¹ | 1.6e+06 M⁻¹ s⁻¹ | – | – | – | – | B4 |
| – | – | – | binds | – | – | – | B5 |
| – | – | – | – | 6.4 nM | 0.0004 s⁻¹ | 63000 M⁻¹ s⁻¹ | B6 |
| – | – | – | – | 25 nM | 0.0012 s⁻¹ | 48000 M⁻¹ s⁻¹ | B7 |
| – | – | – | – | 25 nM | 0.00096 s⁻¹ | 39000 M⁻¹ s⁻¹ | B8 |
| – | – | – | – | 9.9 nM | 0.00057 s⁻¹ | 58000 M⁻¹ s⁻¹ | B9 |
| – | – | – | – | 28 nM | 0.0014 s⁻¹ | 49000 M⁻¹ s⁻¹ | B10 |
| – | – | – | – | 23 nM | 0.0015 s⁻¹ | 65000 M⁻¹ s⁻¹ | B11 |
